Assay: yeast display, Sf9 membrane polyspecificity reagent, FACS + sequencing; frameworks hold sequencing errors
Summary of the method: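 Sorting gates, low and high (top ~1%), were placed on anti-HA fluorescence to track expression and on streptavidin fluorescence to track reagent binding. A clone's polyreactivity label is taken from the gate it came out of. The reagent was 10% biotinylated, detergent-solubilized Sf9 membrane, applied for 1 hour at 4 °C to galactose-induced yeast display cells.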

Sequence	polyreactivity (PSR sort gate)
QVQLVESVGGLVQAGGSLRLSCAASGSTSSLYAMGWYRQAPGKERELVASITSRGGSTYYAVSVKGRFTISRDNAKNTVYLLMNSLKPEDTAVYYCAADASRPDRWYLWKYYYWGQGTQVTVSS	high polyreactivity
QVQLVESVGGLVQAGGSLRLSCAASGTFKWYAMGWYRQAPGKERELVAVISSSGGTTYYADSVKGRFTISRDNAKNTVYLQMNSLKPEDTAVYYCNKRFRSWTTGSPYDYWGQGTQVTVSS	high polyreactivity
QVQLVESVGGLVQAGGSLRLSCAASGYIFGYNAMGWYRQAPGKERELVAAISRSAGRTYYADSVKGRFTISRDNAKNTVYLQMNSLKPEDTAVYYCAAQSYWLGYEYWGQGTQVTVSS	high polyreactivity
QVQLVESVGGLVQAGGSLRLSCAASGYIFKYYAMGWYRQAPGKERELVAAISRSGGSTYYADSVKGRFTISRDNAKNTVYLQMNSLKPEDTAVYYCNAAAYVWKSKQRLYVITYDYWGQGTQVTVSW	high polyreactivity
QVQLVESVGGLVQAGGSLRLSCAASGYTLGDYAMGWYRQAPGKERELVAVITRNGGRTYYADSVKGRFTISRDNAKNTVYLQMNSLKPEDTAVYYCNRDTSIRHYNYWGQGTQVTVSS	high polyreactivity
QVQLVESVGGLVQAGGSLRLSCAASVYIFGYNAMGWYRQAPGKERELVAAISRSAGRTYYAVSVKGRFTISRDNAKNTVYLQMNSLKPEDTAVYYCAAQSYWLCYEYWGHGTQVTVSS	high polyreactivity
QVQLVESVGGLVQAGGSLRLSCAPSGRTFYIYAMGRYRQAPGKERELVAAISISGSTYYADSVKGRFTISRDNAKNTVYLQMNSLKPEDTAVYYCAADYLDSTYGYVYGWDDYLGQGTQVTVSS	low polyreactivity
QVQLVESVGGLVQAGGSLRLSCAPSGSTFYGYAMGWYRQAPGKESELVAAITWGGASTYYADSVKGRFTISRDNAKNTVYLQMNSLKPEDTAVYYCATVGWGYQPYPFGMDYWGQGTQVTVSS	low polyreactivity
QVQLVESVGGLVQAGGSLRLSCASSGLIFPIYTMGWYRQAPGKERELVAASSSRGGSTYYADSVKGRFTISRDNAKNSVYLQMNCLKPEDTAVYDFGSYDYSGQGTQVTVSS	high polyreactivity
QVQLVESVGGLVQAGGSLRLSCPASGINFWNYAMGRYRQAPGKERELVAVISRGGSTYYADSVKGRFTISRDNAKNTVYLQMNSLKPEDNAVYYCAADSVVWEMEYWGQGTLVTVSS	high polyreactivity
QVQLVESVGGLVQAGGSLRLSCSDSGSTFKSYAMGWYRQSPGKERELVAAITHRGSTYYADSVKGRFTISRDNAKNTVYVQMNSLKPEDTAVYYCNVRRIGNGRRVDYCGQGTQVTVSS	high polyreactivity
QVQLVESVGGLVQAGGSLRLSGADSGITFGVYAMGWYRQAPGKVRELVAAICVSGGSTYYADSVKGRFTISRDNAKNTVYLHMNSLKPEVTAVYYCAADRYGHFGYWGQGTQVTLSS	high polyreactivity
QVQLVESVGGLVQAGGSLRLSSAASGRTFSNAKGWYRQAPGKERELVADISSGGSTNYADSVKGRFTISRDNAKNTVYLQMNSLKPEDPAVYYCAAVSGSLYGYSDDYWGQGTQVTVSS	low polyreactivity
QVQLVESVGGLVQAGGSLRLSSAASGSIFAYNAMGSYRQAPGKERELVAAITSDDSTNNADSVKGRFTISRDNAKNTVYLQMNSLKPEDTAVYYCAAYYYYTYIIGYDYWGQGTQVTVSS	low polyreactivity
QVQLVESVGGLVQAGGSLRLSSAASGSTFRGYALGWYRQSPGKERELVASISWSGGSTYYADSVKGRFTISRDNAKNTVYLQMNSLKQEDTAVYYCAARKRWRNIRMDYWGQGTQVTVSS	high polyreactivity
QVQLVESVGGLVQAGRSHRLSGAASCFTFTGYALGWYRQAPGKEREFVAAISRGGSTKYADSVMGRFTISRDNAKNTVYLQMNSLKPEDTAVYYCDASPVYGISRYTLGIYNYGGQGTQVTVSS	high polyreactivity
QVQLVESVGGLVQAGVSLPLSCAASGFTFSYNAMGWYIQAPGKERELVATIRSSGGSTNYADSVKGRFTISRDNAKNTVYVQMNSLKPEDTAVYYCAADFSYYSTYDYWGQGTQVTVSS	low polyreactivity
QVQLVESVGGLVQPGGSLRLSCAASGFTFRNNAMGWYRQSPVKERELVAAITGSGGRTYYTDSVKGRFTISSDNAKNTVYLQMHSLKPEDTAVYYCNTRYRGVHYTEMDYWGQGTQVSVSS	high polyreactivity
QVQLVESVGGVVQAGGSLRLCCAANRSTFAAKAMGWYRQAPGKERELGAAITSGGGTNYADSVKGRFTISRDNAKNTVYLQMNSLKPEDTAVYYCAARTWPWVLGATQDDYWGQGTQVTLSS	low polyreactivity
QVQLVESVLGLVQAGGSLRLSCAASGSTILSNAIGWYRQAPGKERELVAAITSGGSTYYADSVKGGFTISRDNAKNTVYFQMNSLKPDDTAVYYCAVRYDRRRYDYWGQGTQVTVSS	low polyreactivity
QVQLVESVRGLVHAGGSLRLSCAASGSTFYPYRMGGYRQAPGKEREFVAAITWSGGSTYYADSVKGRFTISRDNAKNTVYLQMNSLKPEDTAVYYCNKDARWYAYNSEYDHWGQGTQVSVSS	low polyreactivity
QVQLVESVVGLVQAGGSLRLICAASGIIISRYAMECYRQAPGKERELVAAITRSGGDTYYADSVKGRFTISRDNAKNTVYLQMNSLKPEDTAVYYCAASSSWYEDHDYWGQGTQVTVSS	low polyreactivity

Sequence	polyreactivity (PSR sort gate)
QVQLVESVVGLVQAGGSLRLSCAASGFIFVVYAMGWYRQAPGKERELVAAITNGGITYYADSVKGRFTISRDNAKNTVYLQMNSLKPEDTAVYYCNAQYTDYDGYVGYYYWGQGTQVTVSS	low polyreactivity
QVQLVESVVGLVQAGGSLRLSCAASGRIFYRYAMGWYRQAPGKERELVASITRSGITHYADSVKGRFTISRDNAKNTVYLQMNSLKPEDTAVYYCYARRGSPAPYDYWGQGTQVTVSS	high polyreactivity
QVQLVESVVGLVQAGGSLRLSSAASGSIFPYYVMGWYRQAPGKERELVAAISSRGTSTYYADSVKGRFTLSRDNAKNSVYLQMNSLKPEDTAVYYCAAAYVKFYGYSAEYDYCGQGTQVTVSS	low polyreactivity
QVQLVESWGGIVQAGGSLRLSCAASGFIFSRYGMGWYRQAPGKERELVAAISRSAGSTYYADSVKGRFTISRDNAKNTVYLQMNSQKPEETAVYYCAARHGGRATVEPPIQGYGYWGQGTQVTVSS	low polyreactivity
QVQLVESWGGLFQAGGSLRLSCAASGSTFIYNAMGWYRKAPGKERELVAAITWNYGSTYYADSVKGRFTISRDNANNTVYLQMNSLKPEDTAVYYCAADFTIPYWDANFDYWGQGTQVTVSW	low polyreactivity
QVQLVESWGGLGQAVGSLRLSCAASGRTFLIYAMGWYIQAPGTERELVASITGRGGRTSYADSVKGRFTISRDNAQNTVYLQMNSLKPEDTAVYYCAARNPYTSTYYYWGQGTQVTVSS	high polyreactivity
QVQLVESWGGLVHAGGSLRLSCAASGSTFYWYAMGWYIQAPGKEREFVARISSSGSSTFYADSVKGRFTISRDNAKNTVYLQMNSLKPEDTAVYYCAAETYRHYCFNYWGQGTQVTVSS	high polyreactivity
QVQLVESWGGLVQAGASLRLSCAASGRILPYYAMGWYRQAPGKERELVATISSGGRTNYADSVKGRFTISRDNAKITVYLQMNSLKPEDTEVYFCNKYGFKGGVGYDYWGQGTQVTVSS	high polyreactivity
QVQLVESWGGLVQAGGSLRLICAASGSTFYYNAMGWYRQAPGKEREFVAAISSRRGSTYYADSVKGRFTISRDNAKNTVYLQMNSLKQEDTAVYYCAAKYSHRYDWGQGTQVTVSA	high polyreactivity
QVQLVESWGGLVQAGGSLRLSCAASGFTFRAYAMGWYRQAPGKERELVAAISTGGGSTYYADSVKGRFTISRDNAKNTVYLQMKSLKPEDTAVYYCNALPQRRYYYWGQGTQVTVSS	high polyreactivity
QVQLVESWGGLVQAGGSLRLSCAASGITFTVYAMGWYRQAPGKEREFVAAISSSGSTTYAVSVKGRLTFSRDNAKNTVYLQMNSLKPEDTAVYYCAAEGYYRFSTAYFRRKYEYCGQGTQVTVSS	low polyreactivity
QVQLVESWGGLVQAGGSLRLSCAASGITLGYYSMGWYRQAPGKERELVAGISSSGDSTYYADSVKGRFTISRDNAKNSVYLQIKSLKPEDTAVYYCIADGWYFEYWGQGTQVTVSS	low polyreactivity
QVQLVESWGGLVQAGGSLRLSCAASGLIFQTYTMGWYKQAPGKERELVAAITSSGGRTYYADSVKGRFTISRDNAKNTVYLQKNSLKPEDTAVYYCAARGPPSAGMGYWGQGTQVTVSS	high polyreactivity
QVQLVESWGGLVQAGGSLRLSCAASGLILFAYTMGWYRQAPGKERELVAGIDGSGGTTYYADSVKGRFTISRDNAKNTVYLQMNSLNPEDTAVYYCAASGFRWQGVKRMDYWGQGTQVTVSS	low polyreactivity
QVQLVESWGGLVQAGGSLRLSCAASGNLFADYAMGWYRQAPGTERELVAAISRGGITSYADSVKGRFTISRDNAKNTVYLQMNSLKPEDTAVYYCATDRYDVYDSLGFGYWGQGSQVTVSS	low polyreactivity
QVQLVESWGGLVQAGGSLRLSCAASGRIFHRNTMGWYRQAPGKERELVAAIRSGSRTYYADSVKGRFTISRDNAKNTVYLQMNSLKPEDTAVYDCATTFGTPRYDYWGQGTQVTVSS	high polyreactivity
QVQLVESWGGLVQAGGSLRLSCAASGRILGDYAMGWYRQAPGKEREFVAAIDYNGGSTNYADSVKGRFTISRDNAKNTVFLQMNSLKPEDTAVYYCAAPGFPSRNGFGYWGQGNQVTVSS	low polyreactivity
QVQLVESWGGLVQAGGSLRLSCAASGRTFSRYAMGWYRQAPRKERELVAAISSRGGSTYYADSVKGRFTISRDFANNTVYLQMNSLYPEDTAVYYCNADSKVDPYGYDYWGQGTQVTVSS	high polyreactivity
QVQLVESWGGLVQAGGSLRLSCAASGRTNGYAMGWYRQAPGKERELVARITWRGGSTSYADSVKGRFTISRDNAKNTVYLQMNSLKREDTAVYYCAAGFYFPVYTYVRKRYYYWGQGTQVTVSS	high polyreactivity
QVQLVESWGGLVQAGGSLRLSCAASGSIFYRYAMGWYRQAPGKEREFVAAIRWRGGSTYYADSVKGRFTISRDNAKNTVYLQMNSLKPEDTAVYYCAAPTVQRYNYWGQGTQVTVSS	high polyreactivity
QVQLVESWGGLVQAGGSLRLSCAASGSIFYTNVMGWYRQAPGKERELVARIDSGGSTNYADSVKGRFTISRDNAKNTVYLQMNSLKPEDTAVYYCAADWYIYDYWGQGTQVTVSS	low polyreactivity
